Results from patent publication US20200231645A1.

What was measured:
[1] = molecular target: human GLP-1 receptor (human) (UniProt P43220); assay: cell-based or functional assay
PCSK9 = PCSK9 (UniProt Q8NBP7); assay: cell-based or functional assay

Chain of human GLP-1 receptor (human) (P43220 24-463): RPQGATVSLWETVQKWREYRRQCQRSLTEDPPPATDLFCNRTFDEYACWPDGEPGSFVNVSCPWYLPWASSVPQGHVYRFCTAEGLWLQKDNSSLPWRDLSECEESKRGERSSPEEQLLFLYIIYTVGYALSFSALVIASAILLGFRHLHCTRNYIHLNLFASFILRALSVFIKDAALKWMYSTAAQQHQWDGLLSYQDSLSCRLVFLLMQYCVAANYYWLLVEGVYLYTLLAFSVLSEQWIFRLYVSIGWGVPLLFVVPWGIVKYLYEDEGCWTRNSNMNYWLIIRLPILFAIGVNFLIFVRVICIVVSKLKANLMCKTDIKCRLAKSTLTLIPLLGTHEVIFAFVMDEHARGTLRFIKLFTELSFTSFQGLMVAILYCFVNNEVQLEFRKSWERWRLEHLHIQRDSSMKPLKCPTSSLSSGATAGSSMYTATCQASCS

Row | Substance | EC50 (pM) 0% HSA [1] | EC50 (pM) 1% HSA [1] | LDL-R expression in mouse liver, Percentage of baseline (%), dose of inhibitor 22 nmol/kg (PCSK9)
1 | Semaglutide (peptide) | 7.3 pM | 210 pM | 
2 | Alirocumab (antibody) |  |  | 157%
